Assay type in all cases: biochemical
For one test, the target named is T1, AKT1 (Homo sapiens, UniProt P31749).
T1 construct: purchased Panvera
The test can be described thus: In vitro kinase assay: peptide phosphorylation by AKT1. The note with it: normalized to best substrate. As to the method: (§1) Catalytically active preparations of the kinases of interest were either purchased or prepared. Purchased and tested active kinase preparations including the following: PKC-alpha, PKC-delta, PKC-epsilon, PKC-zeta, PKC-mu, PKA, PKG from Calbiochem, ROK alpha/ROCK-II, active from Upstate Biotechnology, and AKT1 from Panvera.
(§2) The conditions of the kinase assay and the amount of active kinase used varied with the kinase and with the accuracy needed. For a typical experiment, 5-20 ng of kinase was used per well and each peptide pool was assayed in duplicate wells. Note that the absolute amount of kinase used was not usually a critical parameter, because the desired information related to specificity of the kinase not its absolute activity, and robustness of the assay depends on comparisons of the same amount of kinase on different peptides. The combination of kinase concentration and assay duration was modified to assure that the stoichiometry of peptide phosphorylation never exceeded 5%. The choice of kinase buffer depended on the kinase being analyzed. For studies of PKC, 100 mM HEPES, 0.05% Triton-X100, 1 mM CaCl2, 20 mM MgCl2, 0.2 mg/ml phosphatidyl serine (Avanti Polar Lipids), PMA 100 ng/ml was typically used. The lipid stock was prepared by transferring 3 mg phosphatidyl serine into iced mixture of 450 μl water plus 50 μl of 10% Triton-X100, sonicating 10 times on ice for 1 sec each.
(§3) The kinase reaction mixture was assembled by sequential addition to a tube held on ice of: 5 μl peptide (100 μM for final concentration of 10 μM), 15 μl of kinase (typically 5 ng/well, in appropriate kinase buffer), 30 μl of ATP (1 uCi/well of ^32P-gamma ATP in a stock of 167 μM cold ATP in the kinase buffer; for final concentration for 100 μM ATP). The mixture was rapidly warmed to desired reaction temperature (30° C. for PKC) and incubated for the desired duration (usually 10 minutes). The kinase assay was terminated by transfer to 4° C. water batch, and rapid addition of an equal volume (50 μl) of stop solution [0.1M ATP+0.1M EDTA in water, pH 8].
(§4) The peptides were then captured from the reaction mixture by transfer to a Reacti-Bind Streptavidin High Binding Capacity Coated Plates (HBC) (Pierce Biotechnology) as follows. The HBC plates were pre-rinsed three times with PBS/Tween PBS/Tween20 0.05% (PBS/Tween). Part of all of the reaction mixture was then transferred wells of a HBC plate pre-filled with 90 μl of phosphate-buffered saline (PBS); typically each aliquots of each phosphorylation reaction were transferred to duplicate HBC plates to assure accuracy by additional replication
(§5) For kinase assays done at the standard peptide concentration of 10 μM, the peptide concentration in the reaction mixture becomes 5 μM after addition of the stop solution; consequently 10 μl of the reaction (50 pMoles of peptide) was transferred to the HBC plate. More generally, the amount of reaction mixture transferred was estimated to be about 50 pMoles of peptide. […] The HBC plates were incubated for 0.5 to 1.5 hr at room temperature for complete binding of biotinylated peptides to plate-bound streptavidin. The HBC plates were then washed extensively with PBS/Tween. Five washes were done routinely and additional wash steps were added if the wash solution removed from the plate had measurable radioactivity as detected using a Geiger counter. This step is essential to obtaining a good the signal to noise ratio because the fraction of radioactivity incorporated in the peptides was a tiny fraction of the total in the reaction mixture. The wells were air-dried. A volume of 40-50 μl of microScint-20 (Packard Instruments) was added to each well. The plates were covered with stick-on film sheet. Radioactive emissions were measured in a TopCount NXT Microplate Scintillation and Luminescence Counter (Packard Instruments). Typically samples were counted for 5 minutes (or more) to improve the signal to noise ratio when counts were low. […]

Another test has as its system PKC. The test can be described thus: In vitro phosphorylation by PKC (average of isoforms alpha, epsilon, delta, theta). The note with it: for PKC average: average of PKC-alpha, -epsilon, -theta, normalized to best substrate; for average (phosphorylation by PKC-theta, -delta, -epsilon, -alpha): average over PKC-theta, -epsilon and -alpha at 10 and 1 uM peptide, relative to best substrate. The method, then:
as §2, §3, §4
For kinase assays done at the standard peptide concentration of 10 μM, the peptide concentration in the reaction mixture becomes 5 μM after addition of the stop solution; consequently 10 μl of the reaction (50 pMoles of peptide) was transferred to the HBC plate. More generally, the amount of reaction mixture transferred was estimated to be about 50 pMoles of peptide. […] The HBC plates were incubated for 0.5 to 1.5 hr at room temperature for complete binding of biotinylated peptides to plate-bound streptavidin. The HBC plates were then washed extensively with PBS/Tween. Five washes were done routinely and additional wash steps were added if the wash solution removed from the plate had measurable radioactivity as detected using a Geiger counter. This step is essential to obtaining a good the signal to noise ratio because the fraction of radioactivity incorporated in the peptides was a tiny fraction of the total in the reaction mixture. The wells were air-dried. A volume of 40-50 μl of microScint-20 (Packard Instruments) was added to each well. The plates were covered with stick-on film sheet. Radioactive emissions were measured in a TopCount NXT Microplate Scintillation and Luminescence Counter (Packard Instruments). Typically samples were counted for 5 minutes (or more) to improve the signal to noise ratio when counts were low.
Many peptides that are good substrates for PKC enzymes were identified using the methods of the invention. For example, Tables 4 and 5 provide a listing of peptides identified as potentially useful kinase substrates. […]

The target in the next test is T2, PKA (Homo sapiens, UniProt P17612).
T2 construct: purchased Calbiochem
The test can be described thus: In vitro kinase assay: peptide phosphorylation by PKA. Conditions: normalized to best substrate. The method, then:
as §1, §2, §3, §4, §5

The next test addresses T3, PKC-zeta (Homo sapiens, UniProt Q05513).
T3 construct: purchased Calbiochem
T3 sequence (Q05513 1-592): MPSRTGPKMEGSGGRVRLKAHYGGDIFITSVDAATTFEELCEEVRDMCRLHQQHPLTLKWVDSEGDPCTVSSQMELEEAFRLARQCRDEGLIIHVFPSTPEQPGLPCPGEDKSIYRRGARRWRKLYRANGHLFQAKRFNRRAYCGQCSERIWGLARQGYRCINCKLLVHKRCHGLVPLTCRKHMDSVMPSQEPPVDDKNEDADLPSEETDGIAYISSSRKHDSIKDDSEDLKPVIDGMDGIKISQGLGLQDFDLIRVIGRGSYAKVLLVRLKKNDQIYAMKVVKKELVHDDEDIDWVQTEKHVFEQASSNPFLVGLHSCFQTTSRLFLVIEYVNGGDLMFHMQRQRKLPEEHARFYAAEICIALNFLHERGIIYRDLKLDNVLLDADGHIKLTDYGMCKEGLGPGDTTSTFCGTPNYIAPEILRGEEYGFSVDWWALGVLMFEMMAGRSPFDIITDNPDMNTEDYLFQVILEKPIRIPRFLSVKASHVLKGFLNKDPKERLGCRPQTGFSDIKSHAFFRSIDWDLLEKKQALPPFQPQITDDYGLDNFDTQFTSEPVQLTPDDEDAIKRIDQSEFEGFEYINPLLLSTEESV
The test can be described thus: In vitro kinase assay: peptide phosphorylation by PKC-zeta. The note with it: for PKC-zeta phosphorylation: normalized to best substrate. The method, then:
as §1, §2, §3, §4, §5

T1 sequence (P31749 whole entry, species assumed): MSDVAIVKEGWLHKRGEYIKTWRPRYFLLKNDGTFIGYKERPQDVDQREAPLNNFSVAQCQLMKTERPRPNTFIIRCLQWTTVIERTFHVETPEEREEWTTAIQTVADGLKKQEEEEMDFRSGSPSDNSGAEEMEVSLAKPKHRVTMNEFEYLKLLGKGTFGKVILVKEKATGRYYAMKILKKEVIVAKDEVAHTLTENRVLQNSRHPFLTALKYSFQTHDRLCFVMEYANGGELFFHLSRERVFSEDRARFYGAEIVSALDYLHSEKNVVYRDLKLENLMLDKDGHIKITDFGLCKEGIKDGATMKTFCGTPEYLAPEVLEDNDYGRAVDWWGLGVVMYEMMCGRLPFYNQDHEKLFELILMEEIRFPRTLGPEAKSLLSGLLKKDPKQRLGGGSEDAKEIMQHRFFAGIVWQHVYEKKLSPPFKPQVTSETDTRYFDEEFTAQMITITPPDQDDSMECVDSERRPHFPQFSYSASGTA

For the substance 76 (HVRRRRGTFKRSKLRARD) [compound 76], in the test with AKT1, the AKT1 phosphorylation came out at 100%. Also, the PKC average with PKC turned out to be 91%. Also, the PKA phosphorylation with PKA turned out to be 69%. For the same substance, the PKC-zeta phosphorylation with PKC-zeta turned out to be 41%.

As for 77 (KKKKRASFKRKSSKKG) [compound 77], the AKT1 phosphorylation with AKT1 was determined as 8%. Besides, the PKC average with PKC is given as 80%. The PKA phosphorylation with PKA amounted to 4%. Moreover, in the test with PKC-zeta, the PKC-zeta phosphorylation is 60%.

Turning to 78 (KFARKSTRRSIRLPE) [compound 78], the AKT1 phosphorylation with AKT1 was found to be 2%. Further, the PKC average in the test with PKC is 63%. Moreover, in the test with PKA, the PKA phosphorylation is on record as 5%. Further, in the test with PKC-zeta, the PKC-zeta phosphorylation stood at 100%.

In the case of 79 (NRKKKRTSFKRKA) [compound 79], the AKT1 phosphorylation in the test with AKT1 is reported as 7%. The PKC average with PKC turned out to be 60%. Further, the PKA phosphorylation in the test with PKA is given as 3%. Also, the PKC-zeta phosphorylation with PKC-zeta is recorded as 18%.

With 80 (KKKKKRFSFKKSFKL) [compound 80], the AKT1 phosphorylation in the test with AKT1 turned out to be 6%. Besides, the PKC average in the test with PKC is listed as 56%. For the same substance, the PKA phosphorylation in the test with PKA amounted to 3%. In addition, in the test with PKC-zeta, the PKC-zeta phosphorylation was 16%.

For 82 (PRLIRRGSKKRPAR) [compound 82], in the test with AKT1, the AKT1 phosphorylation came to 9%. For the same substance, the PKC average in the test with PKC was 56%. In addition, in the test with PKA, the PKA phosphorylation is given as 10%. The PKC-zeta phosphorylation in the test with PKC-zeta amounted to 38%.

On to 83 (RKIPKRPGSVHRTPSRQ) [compound 83], for which the AKT1 phosphorylation in the test with AKT1 is listed as 6%. Also, the PKC average in the test with PKC is 55%. The PKA phosphorylation with PKA was determined as 2%. Also, the PKC-zeta phosphorylation with PKC-zeta is 4%.

As for 84 (QKKSRLRRRASQLKI) [compound 84], the AKT1 phosphorylation with AKT1 came out at 10%. For the same substance, in the test on PKC, the PKC average stood at 53%. In addition, in the test with PKA, the PKA phosphorylation is recorded as 63%. Further, the PKC-zeta phosphorylation with PKC-zeta came out at 19%.

On to 85 (RFARKGSLRQKNV) [compound 85], for which, in the test with AKT1, the AKT1 phosphorylation came out at 10%. In the test with PKC, the PKC average was 52%. Also, in the test with PKA, the PKA phosphorylation is given as 81%. Besides, the PKC-zeta phosphorylation in the test with PKC-zeta was 56%.

Consider 86 (RQRKRKLSFRRRTDKD) [compound 86], for which, in the test with AKT1, the AKT1 phosphorylation is given as 39%. In addition, the PKC average with PKC was 48%. Further, in the test with PKA, the PKA phosphorylation is 87%. Further, the PKC-zeta phosphorylation with PKC-zeta is recorded as 28%.

Turning to 89 (EYLERRASRRRAV) [compound 89], the AKT1 phosphorylation in the test with AKT1 is 1%. In addition, in the test with PKC, the PKC average is listed as 41%. Further, the PKA phosphorylation in the test with PKA stood at 4%. Moreover, the PKC-zeta phosphorylation in the test with PKC-zeta was 14%.

With 90 (AQIVKRASLKRGKQ) [compound 90], the AKT1 phosphorylation with AKT1 is recorded as 3%. In addition, in the test on PKC, the PKC average is on record as 40%. Also, the PKA phosphorylation with PKA came to 3%. Besides, the PKC-zeta phosphorylation with PKC-zeta was 5%.

As to 92 (DGQKRKKSLRKKLD) [compound 92], the AKT1 phosphorylation in the test with AKT1 turned out to be 2%. In the test on PKC, the PKC average came to 38%. For the same substance, in the test with PKA, the PKA phosphorylation was determined as 18%. Besides, in the test with PKC-zeta, the PKC-zeta phosphorylation was found to be 2%.

On to 93 (AARKKRISVKKKQEQ) [compound 93], for which, in the test with AKT1, the AKT1 phosphorylation is on record as 7%. For the same substance, in the test on PKC, the PKC average turned out to be 37%. Also, in the test with PKA, the PKA phosphorylation is 1%. Also, the PKC-zeta phosphorylation with PKC-zeta was determined as 1%.

Take 94 (KLAVGRHSFSRRSGV) [compound 94]: the AKT1 phosphorylation in the test with AKT1 came out at 9%. For the same substance, the PKC average with PKC was 36%. Further, the PKA phosphorylation in the test with PKA turned out to be 5%. The PKC-zeta phosphorylation with PKC-zeta came out at 10%.

With 95 (KKKFRTPSFLKKSKK) [compound 95], the AKT1 phosphorylation with AKT1 came out at 9%. Besides, the PKC average in the test with PKC stood at 33%. The PKA phosphorylation in the test with PKA is reported as 2%. Moreover, the PKC-zeta phosphorylation with PKC-zeta amounted to 5%.

Take 96 (RGFLRSASLGRRASFHLE) [compound 96]: the AKT1 phosphorylation in the test with AKT1 was 32%. For the same substance, in the test with PKC, the PKC average turned out to be 33%. Further, the PKA phosphorylation in the test with PKA is given as 86%. The PKC-zeta phosphorylation with PKC-zeta came out at 22%.

Consider 99 (AGWRKKTSFRKPKED) [compound 99], for which, in the test with AKT1, the AKT1 phosphorylation was 6%. Besides, in the test with PKC, the PKC average turned out to be 27%. In addition, the PKA phosphorylation with PKA is 1%. Moreover, in the test with PKC-zeta, the PKC-zeta phosphorylation is 10%.

For the substance 100 (WKGKRRSKARKKRK) [compound 100], the AKT1 phosphorylation with AKT1 is given as 3%. In addition, the PKC average with PKC turned out to be 26%. Further, the PKA phosphorylation with PKA worked out at 2%. The PKC-zeta phosphorylation in the test with PKC-zeta is listed as 8%.

With “164 (TEGKMARVAWKGKRRSKARK) [compound 164]”, the “average (phosphorylation by PKC-theta, -delta, -epsilon, -alpha)” value with PKC is recorded as 16. The “phosphorylation by PKC zeta” value with PKC-zeta (peptide concentration 1 uM) turned out to be 3; with PKC-zeta (peptide concentration 10 uM), 2.

“165 (TEEKSKKRKKKHRKNSRKHK) [compound 165]”: the “average (phosphorylation by PKC-theta, -delta, -epsilon, -alpha)” value in the test with PKC is listed as 16. Moreover, the “phosphorylation by PKC zeta” value in the test with PKC-zeta (peptide concentration 1 uM) was 1; with PKC-zeta (peptide concentration 10 uM), 2.

In the case of “166 (MAQIERGEARIQRRISIKKA) [compound 166]”, the “average (phosphorylation by PKC-theta, -delta, -epsilon, -alpha)” value in the test with PKC is recorded as 15. The figures for the “phosphorylation by PKC zeta” value in the test with PKC-zeta (peptide concentration 1 uM) and with PKC-zeta (peptide concentration 10 uM) were 2 and 9, respectively.

In the case of “167 (GLPAPGEDKSIYRRGSRRWR) [compound 167]”, the “average (phosphorylation by PKC-theta, -delta, -epsilon, -alpha)” value with PKC was 15. In addition, the “phosphorylation by PKC zeta” value in the test with PKC-zeta (peptide concentration 1 uM) stood at 5; with PKC-zeta (peptide concentration 10 uM) it was 37.

For the origin of these results see patent publication US20050064507A1, “Determining kinase specificity” (priority 2003, published 2005).
